For test [1], the target named is Acanthamoeba castellanii actin (Acanthamoeba castellanii).
For test [2] the target is unchanged. This is another data set of the same source.

Turning to “Fhod-B (C-terminal half: FH1 and FH2 domains and the Fhod-B tail) (domain or fragment)”, the median run length (length of dim filaments after 5 min), TIRF microscopy with profilin; said to be an underestimate in test [1] was 24 μm. Moreover, the run length, mean of three independent samples, TIRF microscopy with profilin in test [2] was 24.1 μm.
